Data reported in patent US20250297004A1, “NECTIN-4 BINDING AGENTS” (INNATE PHARMA, priority 2022, published 2025).
Entries after “also recorded” stand apart in the source; their conditions may differ.

Legend:
[1] = target: T1, wild-type human Nectin-4 protein (Nectin4-His-BirA) (Homo sapiens, UniProt Q96NY8); assay: Epitope mapping by competition for binding to Nectin-4 (SPR/OCTET); conditions: listed as antibody = 1st mAb injected; 10 μg/mL each
T1 construct: human Nectin4-His-BirA protein diluted to 5 μg/mL in Kinetic buffer 10× were captured onto the biosensors; BirA (biotinylation acceptor tag) (C)
T1 sequence (Q96NY8 with tags, fused parts or gaps): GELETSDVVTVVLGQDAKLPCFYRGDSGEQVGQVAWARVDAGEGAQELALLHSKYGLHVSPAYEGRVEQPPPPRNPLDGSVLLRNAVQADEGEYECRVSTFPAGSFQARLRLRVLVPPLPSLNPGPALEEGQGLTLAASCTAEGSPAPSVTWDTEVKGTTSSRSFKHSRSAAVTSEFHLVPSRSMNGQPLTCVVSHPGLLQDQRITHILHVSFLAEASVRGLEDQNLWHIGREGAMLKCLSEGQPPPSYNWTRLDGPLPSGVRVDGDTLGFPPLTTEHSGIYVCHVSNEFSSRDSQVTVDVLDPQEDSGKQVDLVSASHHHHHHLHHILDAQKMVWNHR
Method: Briefly, human Nectin4-His-BirA protein diluted to 5 μg/mL in Kinetic buffer 10× were captured onto the biosensors. The first antibody was injected diluted to 10 μg/mL in Kinetic buffer 10×, followed by a second injection of the first antibody diluted to 10 μg/mL in Kinetic buffer 10× in order to saturate the signal. The second antibody was injected diluted to 10 μg/mL in Kinetic buffer 10×.
Squares with “O” indicate substantial or direct competition between the 1st and 2nd antibody (1st antibody prevents/causes loss of binding of 2nd antibody), squares with “X” indicate potential partial competition (1st antibody causes a potential reduction but not loss of binding of 2nd antibody), squares with “N/A” indicate no competition.

[2] = test system: SUM190 cells subcutaneously engrafted in CB17-SCID mice; assay: In vivo efficacy of ggfg-Dxd ADCs, Nectin-4 low/SUM190 mouse model of human breast cancer; conditions: single i.v. injection 3 mg/kg, each antibody conjugated to ggfg-Dxd, DAR=8, FIG. 4
Method: SUM190 cells were subcutaneously engrafted in CB17-SCID immunodeficient mice at a dose of 0.5 million cells in 100 μl of Matrigel with growth factor diluted at ½ in PBS. When tumors reached a volume between 195 and 250 mm3, mice were randomized into groups of 9 mice for intravenous treatment with a single injection of 3 mg/kg of camptothecin ADCs. Tumor growths were followed twice a week. Kaplan Meier survival curves were established by using GraphPad Prism V7 software according to the following criteria: When the tumor volume reached 1500 mm3, mice were euthanized and considered dead on the day of sacrifice (D).

human Nectin-4 Mutant 6 = target: T2, human Nectin-4 Mutant 6 (human, UniProt Q96NY8 32-510); assay: binding to HEK293T cells expressing Nectin-4 mutant
T2 construct: Expressed on transfected HEK293T cells; also called H238A/I239T/H241Q
T2 chain: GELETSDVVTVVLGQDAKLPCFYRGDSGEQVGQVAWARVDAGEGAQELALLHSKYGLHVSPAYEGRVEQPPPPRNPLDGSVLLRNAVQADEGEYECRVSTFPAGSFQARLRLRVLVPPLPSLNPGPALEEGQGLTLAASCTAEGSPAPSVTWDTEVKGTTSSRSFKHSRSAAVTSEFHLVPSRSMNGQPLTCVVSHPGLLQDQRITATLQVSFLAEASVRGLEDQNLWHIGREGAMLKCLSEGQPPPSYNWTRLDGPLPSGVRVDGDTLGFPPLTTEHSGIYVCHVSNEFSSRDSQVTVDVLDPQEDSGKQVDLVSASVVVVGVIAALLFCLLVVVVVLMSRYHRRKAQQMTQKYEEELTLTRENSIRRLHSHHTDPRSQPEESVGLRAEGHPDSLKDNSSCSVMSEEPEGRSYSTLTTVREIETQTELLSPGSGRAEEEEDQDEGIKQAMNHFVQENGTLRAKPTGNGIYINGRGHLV

human Nectin-4 Mutant 3 = target: T3, human Nectin-4 Mutant 3 (human, UniProt Q96NY8 32-510); assay: as above
T3 construct: Expressed on transfected HEK293T cells; also called A76S/Q77R/E78A/S91N
T3 chain: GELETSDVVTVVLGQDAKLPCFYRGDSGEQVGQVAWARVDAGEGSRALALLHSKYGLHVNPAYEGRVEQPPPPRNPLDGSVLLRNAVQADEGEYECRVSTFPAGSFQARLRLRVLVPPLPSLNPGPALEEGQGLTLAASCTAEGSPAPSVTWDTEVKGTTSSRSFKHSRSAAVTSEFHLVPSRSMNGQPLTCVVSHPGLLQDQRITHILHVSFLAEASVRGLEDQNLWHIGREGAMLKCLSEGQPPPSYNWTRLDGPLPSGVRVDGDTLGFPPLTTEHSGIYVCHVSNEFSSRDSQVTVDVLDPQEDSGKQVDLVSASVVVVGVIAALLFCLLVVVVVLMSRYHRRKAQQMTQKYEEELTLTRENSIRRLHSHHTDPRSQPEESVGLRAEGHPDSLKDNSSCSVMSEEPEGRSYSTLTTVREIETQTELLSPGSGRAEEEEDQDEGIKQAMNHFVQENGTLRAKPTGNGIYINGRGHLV

human Nectin-4 Mutant 4 = target: T4, human Nectin-4 Mutant 4 (human, UniProt Q96NY8 32-510); assay: as above
T4 construct: Expressed on transfected HEK293T cells; also called A72P/G73N/G75S
T4 chain: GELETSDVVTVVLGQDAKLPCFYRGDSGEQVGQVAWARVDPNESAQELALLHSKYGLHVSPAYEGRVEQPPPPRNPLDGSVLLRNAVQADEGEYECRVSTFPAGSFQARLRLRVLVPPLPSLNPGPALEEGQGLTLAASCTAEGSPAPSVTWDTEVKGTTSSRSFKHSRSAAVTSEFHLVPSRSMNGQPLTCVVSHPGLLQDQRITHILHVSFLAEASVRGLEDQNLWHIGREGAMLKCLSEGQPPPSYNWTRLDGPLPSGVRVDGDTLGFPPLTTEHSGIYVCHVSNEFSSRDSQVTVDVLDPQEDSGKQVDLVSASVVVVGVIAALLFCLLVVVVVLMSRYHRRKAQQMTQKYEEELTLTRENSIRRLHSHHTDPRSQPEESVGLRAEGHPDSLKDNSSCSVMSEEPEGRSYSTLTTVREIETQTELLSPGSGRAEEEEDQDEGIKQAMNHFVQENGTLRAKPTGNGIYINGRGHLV

B1: 5E7 (antibody, V domains shown)
VH: QVQLQQPGAELVKPGASVKLSCKASGYIFTSYWMHWVKQRPGQGLEWIGEIDPSDSYTNYNQKFKGKATLTLDKSSSTTYMQLSSLTSEDSAVYYCVRGYGNYGDYWGQGTTLTVSSASTKGP
VL: DVVMTQAAFSNPVTLGTSASISCRSSKSLLHSNGITYLYWYLQKPGQSPQLLIYQMSNLASGVPDRFSSSGSGTDFTLRISRVEAEDVGVYYCAQNLELPWTFGGGTKLEIKRTVAAP
B1 was tested, and the “competition, 2nd mab injected: 5E7” value [1] was “◯” and the “control of tumor growth” value ([2]; 3 mg/kg) was “strong ability to prevent tumor growth; also recorded: able to effectively control tumor growth”.

B2: N41 (antibody, V domains shown)
VH: QVQLKQSGPGLVQPSQSLSITCTVSGFSLTNYGVHWVRQSPGKGLEWLGVIWSGGSTDYNAAFISRLSISKDTSKSQVFFKMNSLQADDTAIYYCARELIHAMDNWGQGTSVTVSS
VL: DIQMTQSPASLSVSVGETVTITCRASENIYSNLAWYQQKQGNSPQLLVFAATNLADGVPSRFSGSGSGTQYSLKINSLQSEDFGTYYCQHFWGTPTFGGGTKLEIK
For B2, the “competition, 2nd mab injected: 14A5” value [1] was “◯”, the “competition, 2nd mab injected: MABT64” value [1] was “◯” and the “competition, 2nd mab injected: N41” value [1] was “◯”. B2: binds (human Nectin-4 Mutant 6); binds (human Nectin-4 Mutant 3); binds (human Nectin-4 Mutant 4). For the same molecule, the “control of tumor growth” value [2] was “no longer showed the ability to control tumor growth”.

B3: chimeric parental 5E7 antibody (antibody, V domains shown)
VH: QVQLQQPGAELVKPGASVKLSCKASGYIFTSYWMHWVKQRPGQGLEWIGEIDPSDSYTNYNQKFKGKATLTLDKSSSTTYMQLSSLTSEDSAVYYCVRGYGNYGDYWGQGTTLTVSS
VL: DVVMTQAAFSNPVTLGTSASISCRSSKSLLHSNGITYLYWYLQKPGQSPQLLIYQMSNLASGVPDRFSSSGSGTDFTLRISRVEAEDVGVYYCAQNLELPWTFGGGTKLEIKR
notes: Chimeric antibody, murine variable domains with human constant regions; also called ch5E7; CHG1-M-1N4-5E7
B3: binds (human Nectin-4 Mutant 6); binds (human Nectin-4 Mutant 3); binds (human Nectin-4 Mutant 4).
